Results taken from US20240182536A1 (MURAL ONCOLOGY, published 2024).
Where two headings read alike, the source gives them in different places.

T1: IL-18 receptor alpha (UniProt Q13478 19-329, limits assumed)
T1 construct: also called IL-18 Rα; IL-18Rα
T1 sequence (looked up): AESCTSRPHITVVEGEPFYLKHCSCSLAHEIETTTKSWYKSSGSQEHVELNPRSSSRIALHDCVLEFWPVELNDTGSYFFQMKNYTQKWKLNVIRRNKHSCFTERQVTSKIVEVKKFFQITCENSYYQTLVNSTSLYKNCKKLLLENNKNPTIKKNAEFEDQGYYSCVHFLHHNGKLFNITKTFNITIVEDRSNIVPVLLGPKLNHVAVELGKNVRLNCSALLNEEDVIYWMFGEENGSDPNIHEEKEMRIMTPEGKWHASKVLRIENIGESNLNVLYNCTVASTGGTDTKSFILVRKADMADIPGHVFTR

T2: human IL-18 binding protein (human, UniProt O95998 31-194)
T2 sequence (looked up): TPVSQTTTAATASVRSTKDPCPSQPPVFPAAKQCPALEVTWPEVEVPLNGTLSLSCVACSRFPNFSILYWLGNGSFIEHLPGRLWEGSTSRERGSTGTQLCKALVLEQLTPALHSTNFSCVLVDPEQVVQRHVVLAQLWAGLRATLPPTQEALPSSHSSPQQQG

T3: IL-18 receptors on HEK-Blue IL-18 reporter cells (UniProt Q13478 19-541; O95256 20-599, limits assumed)
T3 sequence (looked up) 1: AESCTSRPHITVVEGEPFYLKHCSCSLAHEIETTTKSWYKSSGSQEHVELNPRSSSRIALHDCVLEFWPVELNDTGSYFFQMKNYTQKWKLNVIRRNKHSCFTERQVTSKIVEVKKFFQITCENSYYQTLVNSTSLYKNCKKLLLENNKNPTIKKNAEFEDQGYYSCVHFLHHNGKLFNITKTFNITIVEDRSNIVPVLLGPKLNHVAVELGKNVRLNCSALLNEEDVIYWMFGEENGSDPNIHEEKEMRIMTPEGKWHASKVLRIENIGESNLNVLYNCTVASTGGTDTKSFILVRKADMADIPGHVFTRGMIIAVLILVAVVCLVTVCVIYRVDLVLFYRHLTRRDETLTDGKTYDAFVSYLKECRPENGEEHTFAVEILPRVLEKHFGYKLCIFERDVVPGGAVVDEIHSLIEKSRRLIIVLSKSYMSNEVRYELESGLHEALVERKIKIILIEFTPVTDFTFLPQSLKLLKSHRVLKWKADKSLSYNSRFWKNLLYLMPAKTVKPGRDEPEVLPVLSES
T3 sequence (looked up) 2: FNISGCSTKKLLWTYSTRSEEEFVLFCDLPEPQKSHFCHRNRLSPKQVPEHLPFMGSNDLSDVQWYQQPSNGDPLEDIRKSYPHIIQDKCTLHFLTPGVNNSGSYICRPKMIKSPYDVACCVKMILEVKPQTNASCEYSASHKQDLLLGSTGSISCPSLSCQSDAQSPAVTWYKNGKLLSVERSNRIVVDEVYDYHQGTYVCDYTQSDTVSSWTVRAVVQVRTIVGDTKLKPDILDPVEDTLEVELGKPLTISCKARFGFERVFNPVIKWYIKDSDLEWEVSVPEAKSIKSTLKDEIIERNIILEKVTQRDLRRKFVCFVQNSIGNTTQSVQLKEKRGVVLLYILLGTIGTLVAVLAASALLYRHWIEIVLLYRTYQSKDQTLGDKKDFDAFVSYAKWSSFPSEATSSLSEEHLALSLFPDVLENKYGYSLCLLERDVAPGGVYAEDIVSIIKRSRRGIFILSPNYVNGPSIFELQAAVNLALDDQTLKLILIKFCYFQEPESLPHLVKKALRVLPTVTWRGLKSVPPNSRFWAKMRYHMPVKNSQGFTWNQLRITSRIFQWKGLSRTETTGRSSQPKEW

T4: IL-18 receptors on HEK-Blue IL-18 reporter cells (InvivoGen) (UniProt Q13478 19-541; O95256 20-599)
T4 sequence (looked up) 1: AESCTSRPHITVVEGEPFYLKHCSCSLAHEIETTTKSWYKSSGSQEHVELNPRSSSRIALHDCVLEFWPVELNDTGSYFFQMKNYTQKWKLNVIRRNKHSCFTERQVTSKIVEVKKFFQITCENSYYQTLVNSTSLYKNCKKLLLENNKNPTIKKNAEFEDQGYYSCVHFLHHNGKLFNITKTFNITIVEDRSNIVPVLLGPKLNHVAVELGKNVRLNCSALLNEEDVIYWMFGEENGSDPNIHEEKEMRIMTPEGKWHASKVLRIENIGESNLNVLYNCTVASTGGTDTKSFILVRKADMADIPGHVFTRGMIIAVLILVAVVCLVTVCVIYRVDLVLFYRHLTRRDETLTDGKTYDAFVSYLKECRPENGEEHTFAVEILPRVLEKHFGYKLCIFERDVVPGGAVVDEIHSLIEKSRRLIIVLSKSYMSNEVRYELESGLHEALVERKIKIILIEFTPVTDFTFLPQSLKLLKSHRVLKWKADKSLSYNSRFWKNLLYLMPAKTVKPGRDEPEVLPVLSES
T4 sequence (looked up) 2: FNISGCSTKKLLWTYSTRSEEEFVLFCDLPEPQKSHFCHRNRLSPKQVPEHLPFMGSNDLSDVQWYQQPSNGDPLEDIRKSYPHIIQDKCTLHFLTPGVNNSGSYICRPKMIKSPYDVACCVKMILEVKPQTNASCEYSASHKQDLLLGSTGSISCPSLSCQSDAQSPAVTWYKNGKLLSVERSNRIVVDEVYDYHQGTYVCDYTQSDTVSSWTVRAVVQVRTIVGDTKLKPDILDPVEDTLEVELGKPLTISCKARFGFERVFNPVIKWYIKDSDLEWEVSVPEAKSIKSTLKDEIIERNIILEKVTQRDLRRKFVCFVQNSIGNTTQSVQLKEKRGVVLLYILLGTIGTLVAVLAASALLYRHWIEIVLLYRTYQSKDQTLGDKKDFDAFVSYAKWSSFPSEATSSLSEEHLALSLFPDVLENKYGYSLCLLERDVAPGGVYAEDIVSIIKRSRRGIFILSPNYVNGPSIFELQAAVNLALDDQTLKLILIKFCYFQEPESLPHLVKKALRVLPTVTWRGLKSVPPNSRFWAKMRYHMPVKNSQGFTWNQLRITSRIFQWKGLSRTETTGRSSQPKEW

T5: human IL-18 binding protein (IL-18BP) (human, UniProt O95998 31-194)
T5 sequence (looked up): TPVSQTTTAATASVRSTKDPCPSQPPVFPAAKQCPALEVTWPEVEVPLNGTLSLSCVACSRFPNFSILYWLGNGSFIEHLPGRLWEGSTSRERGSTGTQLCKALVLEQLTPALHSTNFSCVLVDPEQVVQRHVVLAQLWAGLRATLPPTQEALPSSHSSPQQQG

B1: Comparator 1 (ligand)
chain: YFGKLESKLSVIRNLNDQVLFIDQGNRPLFEDMTDSDCRDNAPRTIFIISKYSDSLARGLAVTISVKCEKISTLSCENKIISFKEMNPPDNIKDTKSDIIFFQRDVPGHSRKMQFESSSYEGYFLACEKERDLFKLILKKEDELGDRSIMFTVQNED
notes: Human IL-18 variant M51K, K53S, Q56L, P57A, M60L, S105D, D110S, N111R; also called IL-18 Comparator 1
B2: human IL-18 variant G3T/K53S/M60K (ligand)
chain: YFTKLESKLSVIRNLNDQVLFIDQGNRPLFEDMTDSDMRDNAPRTIFIISMYSDSQPRGKAVTISVKSEKISTLSSENKIISFKEMNPPDNIKDTKSDIIFFQRSVPGHDNKMQFESSSYEGYFLASEKERDLFKLILKKEDELGDRSIMFTVQNED
B3: human IL-18 variant G3T/E6K/K53S/M60K (ligand)
chain: YFTKLKSKLSVIRNLNDQVLFIDQGNRPLFEDMTDSDMRDNAPRTIFIISMYSDSQPRGKAVTISVKSEKISTLSSENKIISFKEMNPPDNIKDTKSDIIFFQRSVPGHDNKMQFESSSYEGYFLASEKERDLFKLILKKEDELGDRSIMFTVQNED
B4: human IL-18 variant G3V/E6K/K53S/M60K (ligand)
chain: YFVKLKSKLSVIRNLNDQVLFIDQGNRPLFEDMTDSDMRDNAPRTIFIISMYSDSQPRGKAVTISVKSEKISTLSSENKIISFKEMNPPDNIKDTKSDIIFFQRSVPGHDNKMQFESSSYEGYFLASEKERDLFKLILKKEDELGDRSIMFTVQNED
B5: human IL-18 variant G3V/K53S/M60K (ligand)
chain: YFVKLESKLSVIRNLNDQVLFIDQGNRPLFEDMTDSDMRDNAPRTIFIISMYSDSQPRGKAVTISVKSEKISTLSSENKIISFKEMNPPDNIKDTKSDIIFFQRSVPGHDNKMQFESSSYEGYFLASEKERDLFKLILKKEDELGDRSIMFTVQNED
B6: human IL-18 variant G3V/E6K/K53A/M60K (ligand)
chain: YFVKLKSKLSVIRNLNDQVLFIDQGNRPLFEDMTDSDMRDNAPRTIFIISMYADSQPRGKAVTISVKSEKISTLSSENKIISFKEMNPPDNIKDTKSDIIFFQRSVPGHDNKMQFESSSYEGYFLASEKERDLFKLILKKEDELGDRSIMFTVQNED
B7: human IL-18 variant G3T/E6K/K53A/M60K (ligand)
chain: YFTKLKSKLSVIRNLNDQVLFIDQGNRPLFEDMTDSDMRDNAPRTIFIISMYADSQPRGKAVTISVKSEKISTLSSENKIISFKEMNPPDNIKDTKSDIIFFQRSVPGHDNKMQFESSSYEGYFLASEKERDLFKLILKKEDELGDRSIMFTVQNED
B8: human IL-18 variant G3T/K53A/M60K (ligand)
chain: YFTKLESKLSVIRNLNDQVLFIDQGNRPLFEDMTDSDMRDNAPRTIFIISMYADSQPRGKAVTISVKSEKISTLSSENKIISFKEMNPPDNIKDTKSDIIFFQRSVPGHDNKMQFESSSYEGYFLASEKERDLFKLILKKEDELGDRSIMFTVQNED
B9: human IL-18 variant G3V/K53A/M60K (ligand)
chain: YFVKLESKLSVIRNLNDQVLFIDQGNRPLFEDMTDSDMRDNAPRTIFIISMYADSQPRGKAVTISVKSEKISTLSSENKIISFKEMNPPDNIKDTKSDIIFFQRSVPGHDNKMQFESSSYEGYFLASEKERDLFKLILKKEDELGDRSIMFTVQNED
B10: IL-18 variant G3R, N91M, K53A (ligand)
chain: YFRKLESKLSVIRNLNDQVLFIDQGNRPLFEDMTDSDMRDNAPRTIFIISMYADSQPRGMAVTISVKSEKISTLSSENKIISFKEMNPPDMIKDTKSDIIFFQRSVPGHDNKMQFESSSYEGYFLASEKERDLFKLILKKEDELGDRSIMFTVQNED
notes: also called G3R/K53A/N91M
B11: IL-18 variant G3R, N91S, K53A (ligand)
chain: YFRKLESKLSVIRNLNDQVLFIDQGNRPLFEDMTDSDMRDNAPRTIFIISMYADSQPRGMAVTISVKSEKISTLSSENKIISFKEMNPPDSIKDTKSDIIFFQRSVPGHDNKMQFESSSYEGYFLASEKERDLFKLILKKEDELGDRSIMFTVQNED

Assays:
IL-18 receptor alpha = target: T1, IL-18 receptor alpha; assay: Octet BLI
Description: (§1) Octet 96red instrument was used to determine affinities of IL18 proteins to BP or receptors. 5-10 ug/ml analyte proteins were used for loading on Sartorius tips (AHC or SA). […] 120-180 s loading, 200 s association and 800 s dissociation were used for kinetics. 3-7 data points were used to calculate affinities.
Additional IL-18 variants were generated and tested based on the results above with G3 variants, E6 variants, K53 variants, and M60 variants. The new variants were first tested for binding to IL-18Rα and IL-18BP by octet, as described above.

[1] = target: T2, human IL-18 binding protein; assay: cell-based or functional assay
[2] = target: T3, IL-18 receptors on HEK-Blue IL-18 …; assay: cell-based or functional assay
[3] = target: T2, human IL-18 binding protein; assay: cell-based or functional assay; remark: listed apart in the source
[4] = target: T3, IL-18 receptors on HEK-Blue IL-18 …; assay: cell-based or functional assay; remark: listed apart in the source
[5] = target: T4, IL-18 receptors on HEK-Blue IL-18 …; assay: cell-based or functional assay
[6] = target: T5, human IL-18 binding protein (IL-18BP); assay: cell-based or functional assay
[7] = target: T5, human IL-18 binding protein (IL-18BP); assay: Octet BLI
Description: as §1
Select G3/K53-substitution containing IL-18 variants and select G3/K53/N91-substitution containing TL-18 variants were tested for activity in the HEK-blue activity assay and for binding affinity to IL-18BP. As shown in the data of Table 15 and Table 16 below, each variant had similar or better activity than WT IL-18, and retained substantial activity in the presence of IL-18BP.

Binder | Kd (IL-18 receptor alpha) [nM] | HEK-blue EC50 (pM) + 300 nM BP [1] [pM] | HEK-blue EC50 (pM) - BP [2] [pM] | HEK-blue EC50 (pM) + 1000 nM BP [3] [pM] | HEK-blue EC50 (pM) - BP [4] [pM] | HEK-Blue Ec50 (pM), -IL-18BP [5] [pM] | HEK-Blue Ec50 (pM), +IL-18BP (50 nM) [6] [pM] | Kd [7] [nM] | koff [7] [s⁻¹] | kon [7] [M⁻¹ s⁻¹]
B1 | 16 | – | – | – | – | – | – | – | – | –
B2 | 5050 | 4.99 | 4.26 | 4.1 | 5.53 | – | – | – | – | –
B3 | 536 | 0.308 | 0.33 | 0.231 | 0.252 | – | – | – | – | –
B4 | 324 | 0.098 | 0.079 | 0.095 | 0.089 | – | – | – | – | –
B5 | 5310 | 2.18 | 2.11 | 2.61 | 0.021 | – | – | – | – | –
B6 | 82 | 0.033 | 0.026 | 0.028 | 0.031 | – | – | – | – | –
B7 | 222 | 0.062 | 0.061 | 0.065 | 0.054 | – | – | – | – | –
B8 | 2260 | 1.01 | 0.843 | 1.31 | 1.88 | – | – | – | – | –
B9 | 488 | 0.063 | 0.041 | 0.075 | 0.086 | – | – | – | – | –
B10 | – | – | – | – | – | 0.06 | 1.67 | 1.5 | 0.00031 | 208000
B11 | – | – | – | – | – | 0.05 | 2.8 | 0.9 | 0.000162 | 191000
